# According to patent US20220411492A1 (QILU PHARMACEUTICAL, published 2022):
# What was measured:
# [1] = molecular target: T1, human Claudin 18.2 (hCLDN18.2) (human, UniProt P56856-2 1-261); assay: FACS, PDX-hCLDN18.2 gastric cancer tumor tissue-derived cells
# T1 construct: whole, on cells; also called CLDN18A2; claudin 18 splice variant 2
# Source text: (§1) FACS was used to detect the binding of anti-CLDN18.2 chimeric antibodies to HEK293 cells stably transfected expressing hCLDN18.2 (HEK293-hCLDN18.2) and gastric cancer tumor tissue-derived cells naturally expressing hCLDN18.2 (PDX-hCLDN18.2).
# [2] = molecular target: T1, human Claudin 18.2 (hCLDN18.2); assay: cell-based or functional assay
# [3] = molecular target: T1, human Claudin 18.2 (hCLDN18.2); assay: FACS, HEK293-hCLDN18.2 cells
# Source text: as §1
# [4] = molecular target: murine CLDN18.2 (mCLDN18.2) (murine) (UniProt P56857); assay: FACS, HEK293-mCLDN18.2 cells
# [5] = molecular target: T1, human Claudin 18.2 (hCLDN18.2); assay: cell-based or functional assay; remark: listed apart in the source
Binder,EC50 [1] [nM],Mean maximum fluorescence intensity (Top MFI) [1] [MFI],CDC EC50 [2] [µg/mL],CDC Maximum lysis (%) [2] [%],EC50 [3] [nM],Mean maximum fluorescence intensity (Top MFI) [3] [MFI],EC50 [4] [nM],Mean maximum fluorescence intensity (Top MFI) [4] [MFI],ADCC EC50 [5] [µg/mL],ADCC Maximum lysis (%) [5] [%]
"ch-39C8 (antibody, V domains shown, also called chimeric antibody of clone 39C8) VH: QVQLQQSGAGLVKPGASVKISCKASGYAFSSYWMIWVKQRPGKGLEWIGQIYPGDGDTNYNGKFKGKATLTADKSSSTAFMQLSSLTSEDSAVYFCTRIYYGNAFAYWGQGTLVTVSA VL: DIVMTQSPSSLTVTAGEKVTMSCKSSQSLLNSGNQKNYLTWYQQKPGQPPKLLIYWASTRESGVPDRFTGSGSGTDFTLTISSVQAEDLAVYYCQNDYSYPFTFGSGTKLEIK",20.1,17500,0.177,94.8,2.7,7820,1.63,10600,0.022,34.5
"ch-40G7 (antibody, V domains shown, also called chimeric antibody of clone 40G7) VH: QVQLQQPGTELVKPGASVKLSCKASGYTFTNYWMHWVKQRPGHGLEWIGMIHPNSYSTNYNEKFRSKATLTVDKSSSTAYMQLSSLTSEDSAVYYCTRIYYGNAMDYWGQGTSVTVSS VL: DIVMTQSPSSLTVTAGERVTMSCKSSQSLFNSGNQKNYLTWYHQKPGQPPKLLIYWAFTRESGVPDRFTGSGSGTDFTLTIRSVQAEDLAVYYCQNDYSYPFTFGSGTKLEIK",7.69,10100,0.38,89.1,2.31,7470,1.11,10000,0.018,32.7
"ch-32G8 (antibody, V domains shown, also called chimeric antibody of clone 32G8) VH: EVHLQQSGPVLVKPGASVKMSCKASGYTFTDYHMNWVKQSHGKSLEWIGVINPYNGGIRYNQKFKGKATLTVDKSSSTAYMELNSLTSEDSAVYYCATIYYGNSFAYWGQGTLVTVSA VL: DIVMTQSPSSLTVTAGEKVTMSCKSSQSLLNSGNQKNYLTWYQQKPGQPPKLLIYWASTRESGVPDRFTGSGSGTDFTLTISSVQAEDLAVYYCQNNYIYPFTFGGGTKLEIR",5.39,14800,0.108,93.8,2.66,8640,0.84,6870,0.019,46.8
"ch-37G8 (antibody, V domains shown, also called chimeric antibody of clone 37G8) VH: EVQLQQSGPVLVKPGASVKMSCKASGYTFSDYHMNWVKQSHGKSLEWVGLINPYNGGIRFNQKFKGKATLTVDKSSSTAYMELNSLTSEDSAVYYCATIYYGNSFAYWGQGTLVTVSA VL: DIVMTQSPSSLTVTAGEKVTLTCKSGQSLLNSGNQKNYLTWYQQKPGQPPKLLIYWASTRESGVPDRFTGSGSGTDFTLTISGVQAEDLAVYYCQNDYFYPYTFGGGTKLEIK",7,14400,0.16,92.9,5.05,10400,1.71,8930,0.022,31.7
"ch-42D2 (antibody, V domains shown, also called chimeric antibody of clone 42D2) VH: EVQLQQSGPVLVKPGASVKMSCKASGYTFTDYQMNWVKQSHGKSLEWIGFINPYNGGIRYNQKFKGKATLTVDKSSSTAYMELNSLTSEDSAVYYCATIYFGNSFANWGQGTLVTVSA VL: DIVMTQSPSSLTVTAGEKVTMSCKPSQSLLNSGNQKNYLTWYQQKPGQPPRLLIYWASTRESGVPDRFTGSGSGTDFTLTISSVQAEDLAVYYCQNDYIYPYTFGGGTNLEIK",7.42,15700,0.13,94.5,2.42,10400,0.764,7400,0.02,39.1

# Next, values leading:
EC50 [1] [nM],Mean maximum fluorescence intensity (Top MFI) [1] [MFI],CDC EC50 [2] [µg/mL],CDC Maximum lysis (%) [2] [%],EC50 [3] [nM],Mean maximum fluorescence intensity (Top MFI) [3] [MFI],EC50 [4] [nM],Mean maximum fluorescence intensity (Top MFI) [4] [MFI],ADCC EC50 [5] [µg/mL],ADCC Maximum lysis (%) [5] [%],Binder
5.59,13600,0.17,94.3,2.92,9480,1.76,14800,0.011,44.7,"ch-48H1 (antibody, V domains shown, also called chimeric antibody of clone 48H1) VH: QVQLQQPGAELVKPGTSVKLSCKASGYIFTNYWTHWMKQRPGQGLEWIGMIHPNSGSSNYNEKFKSKATLTVDRSSSTVYMQLRRLTSEDSAVYYCTRIHYGNSMDYWGQGTSVTVSS VL: DIVMTQSPSSLTVTAGEKVTMSCKSSQSLFNSGNQKNYLTWYQQKPGQPPKLLIYWASTWESGVPDRFTGSGSGTDFTLTISSVQAEDLAVYYCQNAYSYPFTFGSGTKLEIK"
10.7,15700,0.165,96.1,2.46,9870,1.19,12700,0.023,29.1,"ch-229C9 (antibody, V domains shown, also called chimeric antibody of clone 229C9) VH: DVQLQESGPDLVKPSQSLSLICTVTGYSITSGYSWHWIRQFPGNKLEWMGYIHYSGGTNYNPSLKSRISFTRDTSKNQFFLQLNSVTTEDTATYYCARLERGNSFAYWGQGTLVTVSA VL: DIVMTQSPSSLTVTAGEKVTMSCKSTQSLLNSGNQKNYLTWYQQKPGQPPKLLIYWASTRESGVPDRFTGSGSGTDFTLTISSLQAEDLAVYYCQNDYFYPFTFGSGTKLEIK"
4.55,14600,0.139,94.8,2.31,9270,1.24,12700,0.021,36.7,"ch-239E9 (antibody, V domains shown, also called chimeric antibody of clone 239E9) VH: QVQLQQSGPELVRPGVSVKISCKGSSYTFTDYTMHWVKQSHAKSLEWIGFIGVYYGNTNYNQKFKGKATMTVDKSSSTAYMELARLTSEDSAVYYCARIGRGNAMDYWGQGTSVTVSS VL: DIVMTQSPSSLTVTAGEKVTMSCKSSQSLLNSGNQKNYLTWYQQKPGQPPKLLIYWASTRESGVPDRFTGSGSGTDFTLTISSVQAEDLAVYNCQNAYSYPFTFGSGTKLEIK"
15.8,16500,0.179,95.4,2.2,8380,0.948,8980,0.022,31.1,"ch-252F11 (antibody, V domains shown, also called chimeric antibody of clone 252F11) VH: EIQLVESGGGLVRPGGSLKLSCAASGFSFKNYVMSWVRQSPERRLEWVAEIRTGGDYTYYVDTVTGRFTISRDNAKNTLYLEMTSLRSEDTATYYCARVGYGNSLDYWGQGTTLTVSS VL: DIVMTQSPSSLTVTAGEKVTMSCKSSQSLLNSGNQKNYLTWYQQKPGQPPKLLIYWASTRESGVPDRFTGSGSGTDFTLTISSVQAEDLAVYSCQNNYFYPLTFGAGTELELK"
5.35,7620,0.206,89.8,1.51,5590,1.13,6090,0.064,48.5,"ch-43F5 (antibody, V domains shown, also called chimeric antibody of clone 43F5) VH: QVQLQQPGAELVKPGTSVKLSCKASGYTFTSYWTHWVKQRPGQGLEWIGMIHPNSGSSNYNEKFKSKATLTVDKSSSTAYMQLRRLTSEDSAVYYCTRIHYGNAMDYWGQGTSVTVSS VL: DIVMTQSPSSLTVTAGEKVTMTCKSSQSLLNSGNQKNYLTWYQQKPGQPPKLLIYWASTRESGVPDRFTGSGSGTDFTLTISSVQAEDLAIYYCQNDYSFPFTFGSGTKLEIK"
12.3,16800,0.108,95.4,2.46,8720,0.702,6340,0.021,45.6,"ch-76D11 (antibody, V domains shown, also called chimeric antibody of clone 76D11) VH: QVQLQQSGAELMKPGASVKLSCKASGYTFTGYWIEWIKQRPGHGLEWIGEILPGSGSIKYNEKFKDKATFTADTSSNTAYMQLSSLTTEDSAIYYCARKGLRGNSFDYWGQGTTLTVSS VL: DIVMTQSPSSLTVTAGEKVTMSCKSSQSLLNSGNQKNYLTWYQQKPGQPPKRLIYWASTRESGVPDRFTGSGSGTDFTLTISSVQAEDLAVYYCQNDYYYPFTFGSGTKLEIK"
15,17100,0.065,95,2.12,9970,0.573,7640,0.01,36.6,"ch-126A11 (antibody, V domains shown, also called chimeric antibody of clone 126A11) VH: QVQLKESGPGLVAPSQSLSITCTVSEFSLTTYGVSWVRQPPGKGLEWLGVIWGDGSTNYHSALISRLSISKDTSKSQVFLKLNSLQTDDTATYYCAKPGLRNAMDYWGQGTSVTVSS VL: DIVMTQSPSSLSVSAGEKVTMSCKSSQSLLNSGNQKNYLAWYQQKPGQPPKLLIYGASTRESGVPDRFTGSGSGTDFTLTISSVQAEDLAVYYCQNDLIYPLTFGAGTKLELK"
